Publication doi:10.1101/2025.05.23.655777v1

B1: Asp-AT; aspartate aminotransferase 1 (recombinant) (Arabidopsis thaliana) (protein)
chain: MSSWWKSVEPAPKDPILGVTEAFLADPSPEKVNVGVGAYRDDNGKPVVLECVREAEKRLAGSTFMEYLPMGGSAKMVDLTLKLAYGDNSEFIKDKRIAAVQTLSGTGACRLFADFQKRFSPGSQIYIPVPTWSNHHNIWKDAQVPQKTYHYYHPETKGLDFSALMDDVKNAPEGSFFLLHACAHNPTGVDPTEEQWREISQLFKAKKHFAFFDMAYQGFASGDPARDAKSIRIFLEDGHHIGISQSYAKNMGLYGQRVGCLSVLCEDPKQAVAVKSQLQQLARPMYSNPPLHGAQLVSTILEDPELKSLWLKEVKVMADRIIGMRTTLRESLEKLGSPLSWEHVTKQIGMFCYSGLTPEQVDRLTSEYHIYMTRNGRISMAGVTTGNVGYLANAIHEVTKSS
B2: Ala-AT; alanine aminotransferase 1 (recombinant) (Arabidopsis thaliana) (protein)
chain: SASDSSSSLPVTLDTINPKVIKCEYAVRGEIVNIAQKLQEDLKTNKDAYPFDEIIYCNIGNPQSLGQQPITFFREVLALCSYTALLDESATHGLFSSDSIERAWKILDQIPGRATGAYSHSQGIKGLRDAIADGIEARDGFPADPNDIFMTDGASPGVHMMMQLLITSEKDGILCPIPQYPLYSASIALHGGTLVPYYLDEASGWGLEISELKKQLEDARSKGITVRALAVINPGNPTGQVLSEENQRDVVKFCKQEGLVLLADEVYQENVYVPDKKFHSFKKVARSMGYGEKDLALVSFQSVSKGYYGECGKRGGYMEVTGFTSDVREQIYKMASVNLCSNISGQILASLIMSPPKPGDDSYESYIAEKDGILSSLARRAKTLEEALNKLEGVTCNRAEGAMYLFPCLHLPQKAIAAAEAEKTAPDNFYCKRLLKATGIVVVPGSGFRQVPGTWHFRCTILPQEDKIPAIVDRLTAFHQSFMDEFRD

Columns and labels:
Experiment in all cases: purified protein
purified protein [1] = substrate: N[C@@H](CC(=O)O)C(=O)O; conditions: fixed 2-oxoglutarate (6 mM), HEPES pH 8.0, 50 µM PLP, 30 °C
purified protein [2] = substrate: N[C@@H](CS)C(=O)O; conditions: fixed 2-oxoglutarate (6 mM), HEPES pH 8.0, 50 µM PLP, 30 °C
purified protein [3] = substrate: O=C(O)CCC(=O)C(=O)O; conditions: HEPES pH 8.0, 50 µM PLP, 30 °C
purified protein [4] = substrate: C[C@H](N)C(=O)O; conditions: fixed 2-oxoglutarate (6 mM), HEPES pH 8.0, 50 µM PLP, 30 °C

Protein	Km (purified protein [1])	kcat (purified protein [1])	Km (purified protein [2])	kcat (purified protein [2])	Km (purified protein [3]; fixed aspartate (12 mM))	kcat (purified protein [3]; fixed aspartate (12 mM))	Km (purified protein [4])	kcat (purified protein [4])	Km (purified protein [3]; fixed alanine (9 mM))	kcat (purified protein [3]; fixed alanine (9 mM))
B1	3330 ± 60 µM	232.26 s⁻¹	15140 ± 640 µM	0.81 s⁻¹	460 ± 20 µM	180.60 s⁻¹	–	–	–	–
B2	–	–	770 ± 100 µM	0.14 s⁻¹	–	–	2510 ± 180 µM	367.69 s⁻¹	180 ± 10 µM	262.91 s⁻¹
